Results reported in article PMC13537762.

Target: respiratory complex III (mouse (endogenous in liver mitochondria))
Assay: native gel or EMSA; blue native PAGE (3-12% Bis-Tris) of digitonin-solubilised isolated liver mitochondria from control or CLS-LKO mice (standard chow); western blotting with a supercomplex antibody cocktail or subunit-specific antibodies

stoichiometry N: 2
Substance: respiratory complex III
